Measurements taken from publication PMC10440475 (Heliyon, 2023).
Where “and” joins values, the source holds several entries; their conditions need not be identical. Identical values can stand only once.

Target: the molecule itself
Test: PFO-PAGE

B1: ORF3aΔN-eGFP (N-terminus truncated SARS-CoV-2 ORF3a with C-terminal eGFP) (domain or fragment)
chain: PFGWLIVGVALLAVFQSASKIITLKKRWQLALSKGVHFVCNLLLLFVTVYSHLLLVAAGLEAPFLYLYALVYFLQSINFVRIIMRLWLCWKCRSKNPLLYDANYFLCWHTNCYDYCIPYNSVTSSIVITSGDGTTSPISEHDYQIGGYTEKWESGVKDCVVLHSYFTSDYYQLYSTQLSTDTGVEHVTFFIYNKIVDEPEEHVQIHTIDGSSGVVNPVMEPIYDEPTTTTSVPL
stoichiometry N: 5 and 2 and 3 and 4
